± gives the standard deviation of the averaged measurements.
System: ATP
Assay: switch fluorescence ratio, 500 uM ATP over buffer (Cy3 cluster intensity, sum of 5 cycles each) (fold (ratio)); higher = stronger signal-on switching upon ATP binding; sequences stand for … in TCGTCGGCAGCGTCAGATGTGTATAAGAGACAGTTTTTTTTTTTTTTTTTTTTTTTTT…TC
Conditions: aptamer strand: ATP DNA aptamer (quencher-CACCTGGGGGAGTATTGCGGAGGAAGG + anchor), 100 nM annealed; ATP concentration: 500 uM
Outline: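 Cy3-labelled switching-strand clusters on a modified Illumina MiSeq flow-cell were annealed to 100 nM quencher-labelled ATP aptamer, imaged in selection buffer, then imaged after 15 min with 500 uM ATP at 22 °C. Five buffer/ATP cycles ran, with NaOH stripping and re-annealing between them. The fluorescence ratio is summed target-cycle over summed buffer-cycle Cy3 intensity per cluster, averaged per switch-domain sequence. Clusters outside 100-1000 RFU were excluded.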
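Note: ATP exposure 15 min at 22 °C before imaging.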

| Sequence | switch fluorescence ratio |
| --- | --- |
| TTCCTTGGAG | 1.01 ± 0.047 |
| TTCCTTTTAA | 1.04 ± 0.055 |
| TTCGAAAAAA | 1.06 ± 0.14 |
| TTCGAAAAAT | 1.05 ± 0.064 |
| TTCGAAACGA | 1.1 ± 0.14 |
| TTCGAAAGGT | 1.1 ± 0.2 |
| TTCGAAATT | 1.02 ± 0.035 |
| TTCGAGAGGG | 0.981 ± 0.028 |
| TTCGAGATCT | 1.16 ± 0.11 |
| TTCGAGCATT | 1.39 ± 0.17 |
| TTCGAGGTTT | 0.982 ± 0.059 |
| TTCGATCTGA | 0.955 ± 0.012 |
| TTCGATTTGC | 1.01 ± 0.022 |
| TTCGCAGGAT | 1.1 ± 0.027 |
| TTCGCCGGCC | 1.26 ± 0.34 |
| TTCGCGGCAC | 2.44 ± 1.3 |
| TTCGCGGGCT | 0.996 ± 0.028 |
| TTCGCTGCCT | 1.03 ± 0.019 |
| TTCGCTGTAT | 1.01 ± 0.011 |
| TTCGGACCAA | 1.46 ± 0.096 |
| TTCGGAGCTG | 1.07 ± 0.14 |
| TTCGGAGTAC | 1.38 ± 0.14 |
| TTCGGAGTCT | 0.985 ± 0.094 |
| TTCGGATATT | 1.13 ± 0.23 |
| TTCGGCGCGG | 1.21 ± 0.32 |
| TTCGGCTCGA | 1.05 ± 0.034 |

| Sequence | switch fluorescence ratio |
| --- | --- |
| TTCGGCTGGG | 0.98 ± 0.034 |
| TTCGGGAAAA | 0.982 ± 0.016 |
| TTCGGGAGAG | 0.996 ± 0.071 |
| TTCGGGGTAG | 0.963 ± 0.048 |
| TTCGGGGTTA | 1.01 ± 0.018 |
| TTCGGGGTTG | 0.96 ± 0.015 |
| TTCGGGTCCT | 1.02 ± 0.031 |
| TTCGGGTGTG | 0.999 ± 0.025 |
| TTCGGTAGGG | 0.926 ± 0.053 |
| TTCGGTTATG | 1.01 ± 0.033 |
| TTCGGTTGGG | 0.986 ± 0.029 |
| TTCGTAGACT | 0.991 ± 0.017 |
| TTCGTGATAG | 1.308 ± 0.0028 |
| TTCGTGGGCT | 1.02 ± 0.045 |
| TTCGTGGGGG | 0.991 ± 0.015 |
| TTCGTGGGGT | 1.03 ± 0.061 |
| TTCGTGTGCC | 0.94 ± 0.011 |
| TTCGTTATTA | 1.34 ± 0.42 |
| TTCGTTGGCT | 1.16 ± 0.23 |
| TTCGTTTGAA | 1 ± 0.027 |
| TTCTAAAATT | 0.992 ± 0.032 |
| TTCTAAAGTA | 0.994 ± 0.014 |
| TTCTAAGGGG | 1.93 ± 1.3 |
| TTCTAATGAG | 0.998 ± 0.019 |
| TTCTACCTGA | 1.064 ± 0.0086 |
| TTCTACTGAT | 1.32 ± 0.39 |

| Sequence | switch fluorescence ratio |
| --- | --- |
| TTCTAGGCGC | 0.9972 ± 0.0073 |
| TTCTAGGCGG | 1.03 ± 0.029 |
| TTCTAGGGAA | 0.977 ± 0.023 |
| TTCTAGGTAG | 0.991 ± 0.05 |
| TTCTAGTTGA | 0.991 ± 0.022 |
| TTCTATTGTT | 0.999 ± 0.017 |
| TTCTCACGTC | 1.01 ± 0.082 |
| TTCTCACTTG | 1.02 ± 0.03 |
| TTCTCGCTGG | 1 ± 0.041 |
| TTCTGAACGT | 1 ± 0.015 |
| TTCTGATCAG | 1.01 ± 0.011 |
| TTCTGATGGT | 0.99 ± 0.021 |
| TTCTGATTGC | 0.984 ± 0.064 |
| TTCTGCAGGT | 0.995 ± 0.011 |
| TTCTGCCCC | 1.01 ± 0.033 |
| TTCTGGAACT | 1.03 ± 0.015 |
| TTCTGGCACA | 1.02 ± 0.029 |
| TTCTGGCGCG | 0.984 ± 0.015 |
| TTCTGGGGAG | 1.03 ± 0.051 |
| TTCTGGGGGA | 0.992 ± 0.039 |
| TTCTGGGGTA | 0.988 ± 0.033 |
| TTCTGGTGTG | 0.9703 ± 0.0072 |
| TTCTGTATGC | 1.02 ± 0.045 |
| TTCTGTATGT | 0.97 ± 0.029 |
| TTCTGTGGTG | 1.01 ± 0.028 |
| TTCTGTTTGG | 1.01 ± 0.017 |

| Sequence | switch fluorescence ratio |
| --- | --- |
| TTCTTAGAGT | 1.02 ± 0.016 |
| TTCTTCATAG | 1.02 ± 0.015 |
| TTCTTCTGGC | 1.017 ± 0.0073 |
| TTCTTCTGGG | 0.997 ± 0.017 |
| TTCTTGAAG | 0.966 ± 0.02 |
| TTCTTGAGGT | 0.9669 ± 0.0016 |
| TTCTTGGGGT | 0.975 ± 0.056 |
| TTCTTGTAAT | 1.014 ± 0.003 |
| TTCTTTGTTG | 0.984 ± 0.046 |
| TTCTTTTAAT | 0.98998 ± 0.0005 |
| TTCTTTTATG | 1.02 ± 0.021 |
| TTGAAAAAGC | 0.975 ± 0.015 |
| TTGAAACATT | 1.01 ± 0.024 |
| TTGAAAGGGC | 1.02 ± 0.019 |
| TTGAAAGGGT | 0.981 ± 0.087 |
| TTGAAATGTT | 0.9923 ± 0.0033 |
| TTGAACGAGC | 0.99 ± 0.04 |
| TTGAACGGTG | 1.03 ± 0.047 |
| TTGAAGAAAG | 0.976 ± 0.021 |
| TTGAAGAGGT | 0.976 ± 0.049 |
| TTGAAGATAA | 1.02 ± 0.033 |
| TTGAAGCGGA | 1.03 ± 0.03 |
| TTGAAGCGGC | 1.59 ± 0.76 |
| TTGAAGCTGG | 0.9746 ± 0.0088 |
| TTGAAGGGGA | 0.9736 ± 0.0039 |
| TTGAAGGGGC | 0.997 ± 0.055 |

| Sequence | switch fluorescence ratio |
| --- | --- |
| TTGAAGTGCG | 1.02 ± 0.049 |
| TTGAAGTGTG | 1.02 ± 0.015 |
| TTGAAGTTAC | 1.111 ± 0.0072 |
| TTGAAGTTAG | 0.99 ± 0.02 |
| TTGAATCGGG | 0.944 ± 0.035 |
| TTGAATGAGG | 0.95006 ± 0.00095 |
| TTGACAGGGT | 1.03 ± 0.07 |
| TTGACCAAAA | 1.03 ± 0.055 |
| TTGACCGATT | 0.978 ± 0.041 |
| TTGACGAAGG | 0.95 ± 0.026 |
| TTGACGACAC | 1.67 ± 0.45 |
| TTGACGAGTT | 1.06 ± 0.081 |
| TTGACGATGT | 1.17 ± 0.19 |
| TTGACGCAGG | 1.06 ± 0.012 |
| TTGACGCTAA | 2.37 ± 0.65 |
| TTGACGGAGG | 0.983 ± 0.032 |
| TTGACGGGCT | 1.05 ± 0.043 |
| TTGACGGTGG | 1.05 ± 0.086 |
| TTGACGGTGT | 1.028 ± 0.0021 |
| TTGACGTGTC | 1 ± 0.043 |
| TTGACTGTTC | 1.04 ± 0.043 |
| TTGACTTACT | 1.18 ± 0.085 |
| TTGACTTATA | 1.01 ± 0.022 |
| TTGAGAAAAG | 1.06 ± 0.099 |
| TTGAGACGGT | 1 ± 0.017 |
| TTGAGAGTTG | 0.984 ± 0.046 |

| Sequence | switch fluorescence ratio |
| --- | --- |
| TTGAGCAAGT | 1.14 ± 0.075 |
| TTGAGCATGG | 1.06 ± 0.051 |
| TTGAGCTGTG | 1.02 ± 0.019 |
| TTGAGGAAGT | 1.06 ± 0.058 |
| TTGAGGAATA | 0.9922 ± 0.008 |
| TTGAGGCGAT | 1.23 ± 0.22 |
| TTGAGGGAGC | 1.09 ± 0.038 |
| TTGAGGGGA | 0.982 ± 0.021 |
| TTGAGGGGAA | 0.999 ± 0.025 |
| TTGAGGGTAA | 0.99263 ± 0.00084 |
| TTGAGGGTGC | 1.01 ± 0.022 |
| TTGAGGGTGG | 1.0305 ± 0.0005 |
| TTGAGGTACT | 0.971 ± 0.052 |
| TTGAGGTAGT | 0.984 ± 0.014 |
| TTGAGGTATG | 0.9838 ± 0.0046 |
| TTGAGGTGGC | 0.982 ± 0.018 |
| TTGAGGTTTG | 1.03 ± 0.019 |
| TTGAGTAGGT | 0.987 ± 0.031 |
| TTGAGTGCTT | 0.987 ± 0.028 |
| TTGAGTGTGG | 0.998 ± 0.03 |
| TTGAGTGTTG | 1.01 ± 0.049 |
| TTGAGTTCTC | 0.978 ± 0.016 |
| TTGAGTTTGG | 0.985 ± 0.022 |
